Experiment [1] has as its target T1, Anti-PSMA Fab (SEQ ID NOs: 19, 20).
T1 construct: Biotinylated and captured on neutravidin coated plates in the phage ELISA; also called 006 PSMA Fab
In words: phage binding ELISA; Fab-coated wells pre-incubated with PSMA antigen (competitor: PSMA), then clonal phage, anti-M13 HRP detection. Background: ELISA stands for enzyme-linked immunosorbent assay.

The target is the same in experiment [2]. In words: phage binding ELISA; biotinylated anti-PSMA Fab captured on neutravidin plate, clonal phage supernatant, anti-M13 HRP detection.
The target of experiment [3] is Ab-15. In words: BLI (Octet): sensor loaded with 200 nM biotinylated peptide, 100 nM Ab-15.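 Also: binding association and dissociation tracked in real time, fitted to a 1:1 binding model.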 Background: Biolayer interferometry detects binding as a change in optical thickness at a sensor tip.
Experiment [4] concerns the target Ab-15. In words: binding ELISA: biotinylated peptide on neutravidin plate, Ab-15 titrated.
The target of experiment [5] is Ab-15. In words: competition ELISA: peptide titrated against 1 nM Ab-15; competitor plate-bound CD28.

Where no end group is shown, it is not given here.

Turning to PDCVYHSFWGYSCR (tested as crude phage supernatant) [Phage-1740 (clonal phage displaying the peptide of SEQ ID NO: 2024)], in experiment [1], the “Anti-PSMA Fab signal in the presence of PSMA” value (“Anti-PSMA Fab signal” for short) came out at 0.0641. The “Anti-PSMA Fab (SEQ ID NOs: 19, 20) signal” value in experiment [2] turned out to be 0.583.

Turning to FGHCAGSPVFCAYW (tested as crude phage supernatant) [Phage-1730 (clonal phage displaying the peptide of SEQ ID NO: 2014)], the “Anti-PSMA Fab signal” value in experiment [1] was found to be 0.054. The “Anti-PSMA Fab (SEQ ID NOs: 19, 20) signal” value in experiment [2] is 1.06.

By EC50 is commonly meant the concentration that produces a half-maximal response. Higher therefore signals a need for much substance. As usually defined, the IC50 is the concentration that inhibits the measured activity by half. In the experiment with Ab-15 [3], ADWCPRDLWVHCFA (cysteine pairing not given here; also: biotinylated, site not given here, CD28 peptide mask) [Peptide-52] showed an Octet signal of 0.7 and a t1/2 of 3.1 min. The molecule further showed an EC50 with Ab-15 [4] of 75.9 nM. Besides, the IC50 in the experiment with Ab-15 [5] was 2000 nM.

Take DDWCPRDLWVHCFA (cysteine pairing not given here; also: biotinylated, site not given here, CD28 peptide mask) [Peptide-55]: in the experiment with Ab-15 [3], the Octet signal was 0.461 and the t1/2 was found to be 4.2 min. Further, the response in the experiment with Ab-15 [4] was half-maximal at 86.8 nM (EC50). In the experiment with Ab-15 [5], this molecule came in with an IC50 of 4460 nM.

In the experiment with Ab-15 [3], SDWCPRDLWVHCFA (cysteine pairing not given here; also: biotinylated, site not given here, CD28 peptide mask) [Peptide-65] returned an Octet signal of 0.551 and a t1/2 of 2.9 min. In the experiment with Ab-15 [4], a half-maximal response (EC50) required 66.5 nM. Besides, the IC50 with Ab-15 [5] worked out at 2630 nM.

As to HDWCPRDLWVHCFA (cysteine pairing not given here; also: biotinylated, site not given here, CD28 peptide mask) [Peptide-59], in the experiment with Ab-15 [3], the Octet signal worked out at 0.737 and the t1/2 worked out at 3 min. Also, in the experiment with Ab-15 [4], the EC50 was determined as 45.4 nM. The IC50 with Ab-15 [5] turned out to be 2180 nM.

In the experiment with Ab-15 [3], PDWCPRDLWVHCFA (cysteine pairing not given here; also: biotinylated, site not given here, CD28 peptide mask) [Peptide-64] had an Octet signal of 0.328 and a t1/2 of 3.4 min. Moreover, the concentration for a half-maximal effect (EC50) in the experiment with Ab-15 [4] stood at 102 nM. Also, in the experiment with Ab-15 [5], the IC50 was found to be 8340 nM.

In the experiment with Ab-15 [3], NDWCPRDLWVHCFA (cysteine pairing not given here; also: biotinylated, site not given here, CD28 peptide mask) [Peptide-54] gave an Octet signal of 0.434 and a t1/2 of 4 min. The molecule also returned an EC50 with Ab-15 [4] of 84.3 nM. Moreover, the 50% inhibitory concentration (IC50) with Ab-15 [5] stood at 5030 nM.

In the experiment with Ab-15 [3], IDWCPRDLWVHCFA (cysteine pairing not given here; also: biotinylated, site not given here, CD28 peptide mask) [Peptide-60] returned an Octet signal of 0.845 and a t1/2 of 3.1 min. The molecule also had an EC50 with Ab-15 [4] of 44.9 nM. In the experiment with Ab-15 [5], this molecule registered an IC50 of 2660 nM.

Regarding LDWCPRDLWVHCFA (cysteine pairing not given here; also: biotinylated, site not given here, CD28 peptide mask) [Peptide-61], in the experiment with Ab-15 [3], the Octet signal stood at 1.37 and the t1/2 turned out to be 4.5 min. Moreover, the EC50 with Ab-15 [4] turned out to be 23.4 nM. The IC50 in the experiment with Ab-15 [5] turned out to be 630 nM.

For GDWCPRDLWVHCFA (cysteine pairing not given here; also: biotinylated, site not given here, CD28 peptide mask) [Peptide-58], in the experiment with Ab-15 [3], the Octet signal is 0.479 and the t1/2 was determined as 3.9 min. Further, the EC50 in the experiment with Ab-15 [4] turned out to be 73.9 nM. In the experiment with Ab-15 [5], this molecule showed an IC50 of 7060 nM.

On to FDWCPRDLWVHCFA (cysteine pairing not given here; also: biotinylated, site not given here, CD28 peptide mask) [Peptide-63], for which, in the experiment with Ab-15 [3], the Octet signal came out at 1.01 and the t1/2 is 3.3 min. The molecule further displayed an EC50 in the experiment with Ab-15 [4] of 39.3 nM. The molecule also showed a 50% inhibitory concentration (IC50) in the experiment with Ab-15 [5] of 780 nM.

With FCQWIEATNAWLCY (tested as crude phage supernatant) [Phage-1732 (clonal phage displaying the peptide of SEQ ID NO: 2016)], in experiment [1], the “Anti-PSMA Fab signal” value worked out at 0.119. In addition, the “Anti-PSMA Fab (SEQ ID NOs: 19, 20) signal” value in experiment [2] was 1.06.

Regarding MEYCSFHRFTCVLW (tested as crude phage supernatant) [Phage-1736 (clonal phage displaying the peptide of SEQ ID NO: 2020)], the “Anti-PSMA Fab signal” value in experiment [1] turned out to be 0.12. Besides, the “Anti-PSMA Fab (SEQ ID NOs: 19, 20) signal” value in experiment [2] is 1.74.

Take ACHSLVLKHHLQKC (tested as crude phage supernatant) [Phage-1738 (clonal phage displaying the peptide of SEQ ID NO: 2022)]: the “Anti-PSMA Fab signal” value in experiment [1] worked out at 0.0624. Moreover, the “Anti-PSMA Fab (SEQ ID NOs: 19, 20) signal” value in experiment [2] stood at 1.18.

Take SCGWLRGEEFGWWC (tested as crude phage supernatant) [Phage-1739 (clonal phage displaying the peptide of SEQ ID NO: 2023)]: the “Anti-PSMA Fab signal” value in experiment [1] was determined as 0.0625. Moreover, in experiment [2], the “Anti-PSMA Fab (SEQ ID NOs: 19, 20) signal” value amounted to 0.891.

With FCNWVDGDVWVVCK (tested as crude phage supernatant) [Phage-1734 (clonal phage displaying the peptide of SEQ ID NO: 2018)], in experiment [1], the “Anti-PSMA Fab signal” value stood at 0.0607. In addition, the “Anti-PSMA Fab (SEQ ID NOs: 19, 20) signal” value in experiment [2] came out at 0.51.

In the case of HCKFHDYHSWYMCY (tested as crude phage supernatant) [Phage-1737 (clonal phage displaying the peptide of SEQ ID NO: 2021)], the “Anti-PSMA Fab signal” value in experiment [1] came out at 0.117. Also, the “Anti-PSMA Fab (SEQ ID NOs: 19, 20) signal” value in experiment [2] is 1.58.

For the molecule NCFFAADIHWNFCT (tested as crude phage supernatant) [Phage-1731 (clonal phage displaying the peptide of SEQ ID NO: 2015)], the “Anti-PSMA Fab signal” value in experiment [1] worked out at 0.18. Moreover, in experiment [2], the “Anti-PSMA Fab (SEQ ID NOs: 19, 20) signal” value came out at 1.48.

In the case of FVPCIPSHWLCPIW (tested as crude phage supernatant) [Phage-1741 (clonal phage displaying the peptide of SEQ ID NO: 2037)], in experiment [1], the “Anti-PSMA Fab signal” value came out at 0.292. Moreover, the “Anti-PSMA Fab (SEQ ID NOs: 19, 20) signal” value in experiment [2] is 1.05.

With ICQWIGATNAWVCY (tested as crude phage supernatant) [Phage-1726 (clonal phage displaying the peptide of SEQ ID NO: 2010)], in experiment [1], the “Anti-PSMA Fab signal” value stood at 0.326. In addition, in experiment [2], the “Anti-PSMA Fab (SEQ ID NOs: 19, 20) signal” value worked out at 1.82.

For the molecule EGCLTLVDGRAWCW (tested as crude phage supernatant) [Phage-1735 (clonal phage displaying the peptide of SEQ ID NO: 2019)], the “Anti-PSMA Fab signal” value in experiment [1] was 0.0521. The “Anti-PSMA Fab (SEQ ID NOs: 19, 20) signal” value in experiment [2] turned out to be 1.05.

Regarding HLFCWEGSDRCAWV (tested as crude phage supernatant) [Phage-1727 (clonal phage displaying the peptide of SEQ ID NO: 2011)], the “Anti-PSMA Fab signal” value in experiment [1] stood at 0.0753. Also, in experiment [2], the “Anti-PSMA Fab (SEQ ID NOs: 19, 20) signal” value worked out at 1.4.

In the case of NAHCWLWVPAHCRV (tested as crude phage supernatant) [Phage-1729 (clonal phage displaying the peptide of SEQ ID NO: 2013)], in experiment [1], the “Anti-PSMA Fab signal” value stood at 0.0672. Moreover, the “Anti-PSMA Fab (SEQ ID NOs: 19, 20) signal” value in experiment [2] came to 1.35.

For FCGWMDGDVFWFCG (tested as crude phage supernatant) [Phage-1733 (clonal phage displaying the peptide of SEQ ID NO: 2017)], the “Anti-PSMA Fab signal” value in experiment [1] came to 0.145. In addition, the “Anti-PSMA Fab (SEQ ID NOs: 19, 20) signal” value in experiment [2] is 0.428.

PLCGTEEVWWECRL (tested as crude phage supernatant) [Phage-1728 (clonal phage displaying the peptide of SEQ ID NO: 2012)]: the “Anti-PSMA Fab signal” value in experiment [1] turned out to be 0.0694. In addition, the “Anti-PSMA Fab (SEQ ID NOs: 19, 20) signal” value in experiment [2] turned out to be 1.57.

The values above are taken from patent US20260242478A1 (published 2026).
